Reference: patent US20030118612A1 (MAXYGEN, published 2003)
Substitutions are numbered along the chain they refer to. Numbers in names are those of the source.

T1: human G-CSF receptor (human, UniProt Q99062 25-836)
T1 sequence (looked up): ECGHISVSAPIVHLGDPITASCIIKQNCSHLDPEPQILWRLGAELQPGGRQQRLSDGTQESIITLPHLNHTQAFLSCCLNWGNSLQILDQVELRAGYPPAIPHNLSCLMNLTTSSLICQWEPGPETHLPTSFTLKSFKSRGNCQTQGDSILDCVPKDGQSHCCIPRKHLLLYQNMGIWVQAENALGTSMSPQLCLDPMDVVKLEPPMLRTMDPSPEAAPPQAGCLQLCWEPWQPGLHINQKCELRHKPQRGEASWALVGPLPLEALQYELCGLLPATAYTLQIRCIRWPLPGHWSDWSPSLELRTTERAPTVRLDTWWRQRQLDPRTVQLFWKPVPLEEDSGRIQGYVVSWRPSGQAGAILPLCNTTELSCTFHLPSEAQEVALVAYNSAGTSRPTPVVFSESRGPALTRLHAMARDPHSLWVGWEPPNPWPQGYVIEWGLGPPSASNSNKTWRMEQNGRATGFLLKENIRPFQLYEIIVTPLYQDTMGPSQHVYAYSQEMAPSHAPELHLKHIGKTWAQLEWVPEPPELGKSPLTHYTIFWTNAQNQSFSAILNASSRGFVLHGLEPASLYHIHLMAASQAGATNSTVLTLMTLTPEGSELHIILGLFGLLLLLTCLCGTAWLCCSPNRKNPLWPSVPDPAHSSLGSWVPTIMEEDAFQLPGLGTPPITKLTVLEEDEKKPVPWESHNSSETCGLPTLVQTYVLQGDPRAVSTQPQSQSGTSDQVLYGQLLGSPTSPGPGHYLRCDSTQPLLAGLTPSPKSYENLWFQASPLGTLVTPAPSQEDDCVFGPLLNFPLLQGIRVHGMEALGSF

B1: G-CSF variant 23Q conjugated to SPA-PEG 5000 (ligand)
chain: TPLGPASSLPQSFLLKCLEQVRQIQGDGAALQEKLCATYKLCHPEELVLLGHSLGIPWAPLSSCPSQALQLAGCLSQLHSGLFLYQGLLQALEGISPELGPTLDTLQLDVADFATTIWQQMEELGMAPALQPTQGAMPAFASAFQRRAGGVLVASHLQSFLEVSYRVLRHLAQP
modifications: SPA-PEG 5000 conjugated to the available PEGylation sites
B2: G-CSF variant K16/34/40R Q120K T133K S142K, non-conjugated (ligand)
chain: B1 chain with K16R, Q23K, K34R, K40R, Q120K, T133K, S142K
B3: G-CSF variant K16/34/40R Q90K T105K Q120K conjugated to SPA-PEG 5000 (ligand)
chain: B1 chain with K16R, Q23K, K34R, K40R, Q90K, T105K, Q120K
modifications: SPA-PEG 5000 conjugated to the available PEGylation sites
B4: G-CSF variant K16/34/40R Q90K T105K S159K conjugated to SPA-PEG 5000 (ligand)
chain: B1 chain with K16R, Q23K, K34R, K40R, Q90K, T105K, S159K
modifications: SPA-PEG 5000 conjugated to the available PEGylation sites
B5: G-CSF variant K16/34/40R Q70K Q90K T133K conjugated to SPA-PEG 5000 (ligand)
chain: B1 chain with K16R, Q23K, K34R, K40R, Q70K, Q90K, T133K
modifications: SPA-PEG 5000 conjugated to the available PEGylation sites
B6: G-CSF variant K16/34/40R Q70K Q90K T133K, non-conjugated (ligand)
chain: B1 chain with K16R, Q23K, K34R, K40R, Q70K, Q90K, T133K
B7: G-CSF variant K16/34/40R Q120K T133K S142K conjugated to SPA-PEG 5000 (ligand)
chain: B1 chain with K16R, Q23K, K34R, K40R, Q120K, T133K, S142K
modifications: SPA-PEG 5000 conjugated to the available PEGylation sites
B8: G-CSF variant K16/34/40R Q90K Q120K S142K, non-conjugated (ligand)
chain: B1 chain with K16R, Q23K, K34R, K40R, Q90K, Q120K, S142K
B9: G-CSF variant K16/34/40R Q70K Q120K T133K conjugated to SPA-PEG 5000 (ligand)
chain: B1 chain with K16R, Q23K, K34R, K40R, Q70K, Q120K, T133K
modifications: SPA-PEG 5000 conjugated to the available PEGylation sites
B10: G-CSF variant K16/23R conjugated to SPA-PEG 5000 (ligand)
chain: B1 chain with K16R, Q23R
modifications: SPA-PEG 5000 conjugated to the available PEGylation sites
B11: G-CSF variant 34R, non-conjugated (ligand)
chain: B1 chain with Q23K, K34R
B12: G-CSF variant K16/34/40R Q90K T105K T133K, non-conjugated (ligand)
chain: B1 chain with K16R, Q23K, K34R, K40R, Q90K, T105K, T133K
B13: G-CSF variant 34Q conjugated to SPA-PEG 5000 (ligand)
chain: B1 chain with Q23K, K34Q
modifications: SPA-PEG 5000 conjugated to the available PEGylation sites
B14: G-CSF variant K16/34/40R Q90K T105K Q120K, non-conjugated (ligand)
chain: B1 chain with K16R, Q23K, K34R, K40R, Q90K, T105K, Q120K
B15: G-CSF variant K16/34/40R Q70K Q120K S142K, non-conjugated (ligand)
chain: B1 chain with K16R, Q23K, K34R, K40R, Q70K, Q120K, S142K
B16: G-CSF variant 34A, non-conjugated (ligand)
chain: B1 chain with Q23K, K34A
B17: G-CSF variant 40R conjugated to SPA-PEG 5000 (ligand)
chain: B1 chain with Q23K, K40R
modifications: SPA-PEG 5000 conjugated to the available PEGylation sites
B18: G-CSF variant K16/34/40R Q70K Q120K S142K conjugated to SPA-PEG 5000 (ligand)
chain: B1 chain with K16R, Q23K, K34R, K40R, Q70K, Q120K, S142K
modifications: SPA-PEG 5000 conjugated to the available PEGylation sites
B19: G-CSF variant 40R, non-conjugated (ligand)
chain: B1 chain with Q23K, K40R
B20: G-CSF variant 23R conjugated to SPA-PEG 5000 (ligand)
chain: B1 chain with Q23R
modifications: SPA-PEG 5000 conjugated to the available PEGylation sites
B21: G-CSF variant K16/34/40R T105K Q120K T133K, non-conjugated (ligand)
chain: B1 chain with K16R, Q23K, K34R, K40R, T105K, Q120K, T133K
B22: G-CSF variant K16/34/40R Q90K Q120K T133K, non-conjugated (ligand)
chain: B1 chain with K16R, Q23K, K34R, K40R, Q90K, Q120K, T133K
B23: G-CSF variant 23R, non-conjugated (ligand)
chain: B1 chain with Q23R
B24: G-CSF variant K16/34/40R Q70K Q120K T133K, non-conjugated (ligand)
chain: B1 chain with K16R, Q23K, K34R, K40R, Q70K, Q120K, T133K
B25: G-CSF variant K16/23Q, non-conjugated (ligand)
chain: B1 chain with K16Q
B26: G-CSF variant 34A conjugated to SPA-PEG 5000 (ligand)
chain: B1 chain with Q23K, K34A
modifications: SPA-PEG 5000 conjugated to the available PEGylation sites
B27: G-CSF variant K16/34/40R Q70K T105K Q120K, non-conjugated (ligand)
chain: B1 chain with K16R, Q23K, K34R, K40R, Q70K, T105K, Q120K
B28: G-CSF variant 34Q, non-conjugated (ligand)
chain: B1 chain with Q23K, K34Q
B29: G-CSF variant K16/23R, non-conjugated (ligand)
chain: B1 chain with K16R, Q23R
B30: G-CSF variant K16/34/40R Q90K Q120K S142K conjugated to SPA-PEG 5000 (ligand)
chain: B1 chain with K16R, Q23K, K34R, K40R, Q90K, Q120K, S142K
modifications: SPA-PEG 5000 conjugated to the available PEGylation sites
B31: G-CSF variant K16/34/40R T105K Q120K T133K conjugated to SPA-PEG 5000 (ligand)
chain: B1 chain with K16R, Q23K, K34R, K40R, T105K, Q120K, T133K
modifications: SPA-PEG 5000 conjugated to the available PEGylation sites
B32: G-CSF variant K16/34/40R Q70K Q90K Q120K conjugated to SPA-PEG 5000 (ligand)
chain: B1 chain with K16R, Q23K, K34R, K40R, Q70K, Q90K, Q120K
modifications: SPA-PEG 5000 conjugated to the available PEGylation sites
B33: G-CSF variant K16/34/40R Q90K T105K T133K conjugated to SPA-PEG 5000 (ligand)
chain: B1 chain with K16R, Q23K, K34R, K40R, Q90K, T105K, T133K
modifications: SPA-PEG 5000 conjugated to the available PEGylation sites
B34: G-CSF variant K16/34/40R Q90K T105K S159K, non-conjugated (ligand)
chain: B1 chain with K16R, Q23K, K34R, K40R, Q90K, T105K, S159K
B35: G-CSF variant K16/34/40R Q90K Q120K T133K conjugated to SPA-PEG 5000 (ligand)
chain: B1 chain with K16R, Q23K, K34R, K40R, Q90K, Q120K, T133K
modifications: SPA-PEG 5000 conjugated to the available PEGylation sites
B36: G-CSF variant K16/34/40R Q70K T105K Q120K conjugated to SPA-PEG 5000 (ligand)
chain: B1 chain with K16R, Q23K, K34R, K40R, Q70K, T105K, Q120K
modifications: SPA-PEG 5000 conjugated to the available PEGylation sites
B37: G-CSF variant 34R conjugated to SPA-PEG 5000 (ligand)
chain: B1 chain with Q23K, K34R
modifications: SPA-PEG 5000 conjugated to the available PEGylation sites
B38: G-CSF with N-terminal Histidine tag, non-conjugated (ligand)
chain: MKHQHQHQHQHQHQQTPLGPASSLPQSFLLKCLEQVRKIQGDGAALQEKLCATYKLCHPEELVLLGHSLGIPWAPLSSCPSQALQLAGCLSQLHSGLFLYQGLLQALEGISPELGPTLDTLQLDVADFATTIWQQMEELGMAPALQPTQGAMPAFASAFQRRAGGVLVASHLQSFLEVSYRVLRHLAQP

molecular target: T1, human G-CSF receptor; assay: cell-based or functional assay

EC50 (% of hG-CSF) conjugated to SPA-PEG 5000 | EC50 (% of hG-CSF) non-conjugated | Binder
0.1 % of hG-CSF |  | B1
 | 10 % of hG-CSF | B2
2 % of hG-CSF |  | B3
5 % of hG-CSF |  | B4
5 % of hG-CSF |  | B5
 | 15 % of hG-CSF | B6
1 % of hG-CSF |  | B7
 | 10 % of hG-CSF | B8
2 % of hG-CSF |  | B9
1 % of hG-CSF |  | B10
 | 100 % of hG-CSF | B11
 | 10 % of hG-CSF | B12
1 % of hG-CSF |  | B13
 | 10 % of hG-CSF | B14
 | 10 % of hG-CSF | B15
 | 80 % of hG-CSF | B16
1 % of hG-CSF |  | B17
1 % of hG-CSF |  | B18
 | 50 % of hG-CSF | B19

EC50 (% of hG-CSF) conjugated to SPA-PEG 5000 | EC50 (% of hG-CSF) non-conjugated | Binder
0.1 % of hG-CSF |  | B20
 | 10 % of hG-CSF | B21
 | 15 % of hG-CSF | B22
 | 100 % of hG-CSF | B23
 | 15 % of hG-CSF | B24
 | 80 % of hG-CSF | B25
1 % of hG-CSF |  | B26
 | 10 % of hG-CSF | B27
 | 70 % of hG-CSF | B28
 | 100 % of hG-CSF | B29
1 % of hG-CSF |  | B30
1 % of hG-CSF |  | B31
12 % of hG-CSF |  | B32
2 % of hG-CSF |  | B33
 | 55 % of hG-CSF | B34
2 % of hG-CSF |  | B35
2 % of hG-CSF |  | B36
1 % of hG-CSF |  | B37
 | 10 % of hG-CSF | B38
